# Test results as given in publication PMC3443289.
# Target: HIV-1_(JR-FL) Env(−)ΔCT glycoprotein (uncleaved, cytoplasmic tail-truncated envelope glycoprotein precursor) (HIV-1 (isolate JR-FL))
# Experiment: cryo-EM structure
substance,measurement,value
"HIV-1_(JR-FL) Env(−)ΔCT glycoprotein (uncleaved, cytoplasmic tail-truncated envelope glycoprotein precursor) (natural protein)",stoichiometry N,3
